We go through four molecules from patent US20260217822A1 (SANA BIOTECHNOLOGY, published 2026).

Where two headings read alike, the source gives them in different places.

For test [1], the target named is T1, CD19 on CD19+ cells (Raji cells; NALM-6 tumor cells) (UniProt P15391 20-556, limits assumed).
T1 construct: whole, on cells; Endogenous CD19 on tumor cell lines; also called CD19+ Raji cells
T1 sequence (looked up): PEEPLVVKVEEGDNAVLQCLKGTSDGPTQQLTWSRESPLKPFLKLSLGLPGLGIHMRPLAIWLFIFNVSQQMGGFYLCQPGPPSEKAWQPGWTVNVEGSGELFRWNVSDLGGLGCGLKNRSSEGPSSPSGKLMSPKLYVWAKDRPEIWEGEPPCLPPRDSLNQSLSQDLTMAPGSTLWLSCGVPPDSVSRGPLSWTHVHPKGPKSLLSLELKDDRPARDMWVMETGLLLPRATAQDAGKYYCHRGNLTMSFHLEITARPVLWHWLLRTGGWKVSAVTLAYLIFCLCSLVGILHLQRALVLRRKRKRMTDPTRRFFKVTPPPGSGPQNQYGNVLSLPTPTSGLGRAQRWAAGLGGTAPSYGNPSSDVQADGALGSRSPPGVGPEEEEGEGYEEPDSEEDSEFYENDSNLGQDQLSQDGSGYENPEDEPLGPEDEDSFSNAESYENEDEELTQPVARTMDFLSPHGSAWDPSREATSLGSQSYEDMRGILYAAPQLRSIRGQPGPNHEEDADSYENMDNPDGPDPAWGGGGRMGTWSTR
Briefly: flow cytometry, binder incubated with CD19+ Raji cells.

The target of test [2] is T2, recombinant CD19 (UniProt P15391 20-291, limits assumed).
T2 construct: also called Cluster of Differentiation 19; B-lymphocyte antigen CD19
T2 sequence (looked up): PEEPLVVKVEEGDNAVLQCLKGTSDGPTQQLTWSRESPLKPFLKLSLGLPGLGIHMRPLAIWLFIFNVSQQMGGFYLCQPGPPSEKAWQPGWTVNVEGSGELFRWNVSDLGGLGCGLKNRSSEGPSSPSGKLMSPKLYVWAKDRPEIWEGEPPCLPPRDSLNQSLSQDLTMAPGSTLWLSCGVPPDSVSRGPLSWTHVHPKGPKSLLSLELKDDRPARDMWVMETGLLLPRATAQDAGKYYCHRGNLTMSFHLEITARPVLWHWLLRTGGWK
The test can be described thus: ELISA on recombinant CD19, OD at 405 nm.

For test [3], the target named is T2, recombinant CD19. The test can be described thus: ELISA on recombinant CD19, OD at 405 nm against antibody concentration.
Test [4] has as its target T2, recombinant CD19. The description is as above. The source holds these as a separate data set.
In test [5] the target is T2, recombinant CD19. The description is as above. The source holds these as a separate data set.
For test [6], the target named is T1, CD19 on CD19+ cells (Raji cells; NALM-6 …). Briefly: cell-based or functional assay.

B1: CD19 Binder 2 (scFv, V domains shown)
VH: EVHLVESGGGLVQPGGSLRLSCAASGFTFSDYYMSWIRQAPGKGLEWVSYISSSGSTTYYADSVKGRFTISRDNAKNSLYLQMNSLRAEDTAVYYCARVEGWSLLDYWGQGTLVTVSS
VL: QSVLTQPPSVSAAPGQKVTMSCSGSSSNIGNNYVSWYQQLPGTAPKLLIYDNNKRPSGIPDRFSGSKSGTSATLGITGLQTGDEADYYCGTWDSSLGAVVFGGGTKVTVL
Regarding B1, the EC50 in test [1] was 0.073 µg/mL; in the test with recombinant CD19 [2], 0.27 µg/mL. Moreover, in the test with recombinant CD19 [3], the “EC50 (read off the curve)” value is roughly 0.3 µg/mL.

B2: CD19 Binder 1 (scFv, V domains shown)
VH: EVQLVESGGGLIQPGGSLRLSCAASGFTVSSNYMSWVRQAPGKGLEWVSVIYSGGSTYYADSVKGRFTISRDNSKNTLYLQMNSLRAEDTAVYYCARDGGLDTLYGMDVWGQGTTVTVSS
VL: QSVVTQPPSVSGAPGQRVTISCTGSSSNIGAGYDVHWYQQLPGTAPKLLIYGNSNRPSGVPDRFSGSKSGTSASLAITGLQAEDEADYYCQSYDSSLSGSYVFGTGTKVTVL
As to B2, the figures for the EC50 (in test [1]; with recombinant CD19 [2]) were 0.041 µg/mL and 0.099 µg/mL, respectively. Further, the “EC50 (read off the curve)” value with recombinant CD19 [4] is roughly 0.1 µg/mL.

B3: CD19 Binder 3 (scFv, V domains shown)
VH: EVQLVQSGAEVKKPGESLKISCKGSGYSFTSYWIGWVRQMPGKGLEWMGIIYPGDSDTRYSPSFQGQVTISADKSISTAYLQWSSLKASDTAMYYCARLPFVGATTGGFDYWGQGTLVTVSS
VL: QSVVTQPASVSGSPGQSITISCTGTSSDVGGYNYVSWYQQHPGKAPKLVIYEVSNRPSGVSNRFSGSKSGNTASLTISGLQAEDEADYYCSSYTSSSTLVFGGGTKLTVL
B3: the “EC50 (read off the curve)” value with recombinant CD19 [5] was roughly 0.04 µg/mL. Also, the 50% effective concentration (EC50) in test [1] was 1.2 µg/mL; in the test with recombinant CD19 [2] it was 0.044 µg/mL.

B4: CAR 400 (VH-VL) CD19 chimeric antigen receptor (receptor)
chain: EVQLVQSGAEVKKPGESLKISCKGSGYSFTSYWIGWVRQMPGKGLEWMGIIYPGDSDTRYSPSFQGQVTISADKSISTAYLQWSSLKASDTAMYYCARLPFVGATTGGFDYWGQGTLVTVSSGGGGSGGGGSGGGGSQSVVTQPASVSGSPGQSITISCTGTSSDVGGYNYVSWYQQHPGKAPKLVIYEVSNRPSGVSNRFSGSKSGNTASLTISGLQAEDEADYYCSSYTSSSTLVFGGGTKLTVLTTTPAPRPPTPAPTIASQPLSLRPEACRPAAGGAVHTRGLDFACDIYIWAPLAGTCGVLLLSLVITLYCKRGRKKLLYIFKQPFMRPVQTTQEEDGCSCRFPEEEEGGCELRVKFSRSADAPAYQQGQNQLYNELNLGRREEYDVLDKRRGRDPEMGGKPRRKNPQEGLYNELQKDKMAEAYSEIGMKGERRRGKGHDGLYQGLSTATKDTYDALHMQALPPR
With B4, the “NALM-6 survival percentage after 24-hour co-culture with hypoimmune CAR T cells, E:T ratio of 1:32 (luciferase read-out)” value in test [6] was less than 20%.
